According to patent publication US20150266954A1:

Assays:
[1] = target: cynomolgus monkey IL-21 (cynomolgus monkey); assay: cell-based or functional assay
human IL-21 (human) [2] = target: human IL-21 (human) (UniProt Q9HBE4); assay: cell-based or functional assay
mouse IL-21 (mouse) = mouse IL-21 (mouse) (UniProt Q9ES17); assay: cell-based or functional assay
rabbit IL-21 (rabbit) = assay: cell-based or functional assay
human IL-21 (human) [3] = target: human IL-21 (human) (UniProt Q9HBE4); assay: capture ELISA, biotin-IL-21 at 11 nM
human IL-21 (human) [4] = target: human IL-21 (human) (UniProt Q9HBE4); assay: capture ELISA, biotin-IL-21 at 33 nM
human IL-21 (human) [5] = target: human IL-21 (human) (UniProt Q9HBE4); assay: capture ELISA, biotin-IL-21 at 1.2 nM
human IL-21 (human) [6] = target: human IL-21 (human) (UniProt Q9HBE4); assay: capture ELISA, biotin-IL-21 at 3.7 nM
human IL-21 (human) [7] = target: human IL-21 (human) (UniProt Q9HBE4); assay: capture ELISA, biotin-IL-21 at 0.05 nM
human IL-21 (human) [8] = target: human IL-21 (human) (UniProt Q9HBE4); assay: capture ELISA, biotin-IL-21 at 0.14 nM
human IL-21 (human) [9] = target: human IL-21 (human) (UniProt Q9HBE4); assay: capture ELISA, biotin-IL-21 at 0.41 nM

human IL-21 (human), sequence (Q9HBE4 32-162): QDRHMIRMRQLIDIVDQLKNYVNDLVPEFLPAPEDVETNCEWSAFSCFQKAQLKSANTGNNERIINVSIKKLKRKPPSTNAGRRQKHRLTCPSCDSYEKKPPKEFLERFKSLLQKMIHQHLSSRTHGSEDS
rabbit IL-21 (rabbit), sequence (chain, as listed by the source limits assumed): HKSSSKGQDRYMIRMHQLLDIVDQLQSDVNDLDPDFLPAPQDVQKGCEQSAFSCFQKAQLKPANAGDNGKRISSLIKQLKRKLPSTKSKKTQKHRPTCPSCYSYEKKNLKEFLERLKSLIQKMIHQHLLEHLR
cynomolgus monkey IL-21 (cynomolgus monkey), sequence (Q9HBE4 other isoform, or with tags, fused parts or gaps): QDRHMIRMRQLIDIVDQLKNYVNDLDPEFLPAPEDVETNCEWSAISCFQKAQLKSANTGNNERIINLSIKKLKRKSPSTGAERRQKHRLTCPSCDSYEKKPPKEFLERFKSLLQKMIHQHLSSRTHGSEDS

human IL-21R:Fc chimera (R&D Systems, cat #991-R2) (from UniProt Q9HBE5 20-232) (Fc fusion)
IC50, IM9 pan-STAT-luciferase reporter assay, IL-21 at 66.67 pM [1]: 3920 pM
% of maximum IL-21-induced B cell proliferation at 0.1 nM inhibitor (SDEV 15.8) (human IL-21 (human) [2]): 83%
% of maximum IL-21-induced B cell proliferation at 0.21 nM inhibitor (SDEV 10.8) (human IL-21 (human) [2]): 99%
% of maximum IL-21-induced B cell proliferation at 0.42 nM inhibitor (SDEV 6.43) (human IL-21 (human) [2]): 87%
% of maximum IL-21-induced B cell proliferation at 0.83 nM inhibitor (SDEV 6.33) (human IL-21 (human) [2]): 109%
% of maximum IL-21-induced B cell proliferation at 1.67 nM inhibitor (SDEV 12.6) (human IL-21 (human) [2]): 90%
% of maximum IL-21-induced B cell proliferation at 3.33 nM inhibitor (SDEV 13.7) (human IL-21 (human) [2]): 103%
% of maximum IL-21-induced B cell proliferation at 13.3 nM inhibitor (SDEV 13.8) (human IL-21 (human) [2]): 77%
% of maximum IL-21-induced B cell proliferation at 53.3 nM inhibitor (SDEV 6.2) (human IL-21 (human) [2]): 83%
IC50, IM9 pan-STAT-luciferase reporter assay, IL-21 at 66.67 pM (human IL-21 (human) [2]): 271 pM
IC50, IM9 pan-STAT-luciferase reporter assay, IL-21 at 66.67 pM (mouse IL-21 (mouse)): 3530 pM
IC50, IM9 pan-STAT-luciferase reporter assay, IL-21 at 66.67 pM (rabbit IL-21 (rabbit)): 321 pM

human IgG4 isotype control antibody
% of maximum IL-21-induced B cell proliferation at 0.1 nM inhibitor (SDEV 5.34) (human IL-21 (human) [2]): 96%
% of maximum IL-21-induced B cell proliferation at 0.21 nM inhibitor (SDEV 10.3) (human IL-21 (human) [2]): 115%
% of maximum IL-21-induced B cell proliferation at 0.42 nM inhibitor (SDEV 17.1) (human IL-21 (human) [2]): 107%
% of maximum IL-21-induced B cell proliferation at 0.83 nM inhibitor (SDEV 15.3) (human IL-21 (human) [2]): 114%
% of maximum IL-21-induced B cell proliferation at 1.67 nM inhibitor (SDEV 4.78) (human IL-21 (human) [2]): 108%
% of maximum IL-21-induced B cell proliferation at 3.33 nM inhibitor (SDEV 18.7) (human IL-21 (human) [2]): 119%
% of maximum IL-21-induced B cell proliferation at 6.67 nM inhibitor (SDEV 17.9) (human IL-21 (human) [2]): 103%
% of maximum IL-21-induced B cell proliferation at 13.3 nM inhibitor (SDEV 6.21) (human IL-21 (human) [2]): 101%
% of maximum IL-21-induced B cell proliferation at 26.7 nM inhibitor (SDEV 11.2) (human IL-21 (human) [2]): 96%
fold increase of plasma cells (CD38 high, IgD low), donor 1, 26.7 nM antibody (IL-21 without antibody: 176) (human IL-21 (human) [2]): 174 fold
fold increase of plasma cells (CD38 high, IgD low), donor 2, 26.7 nM antibody (IL-21 without antibody: 114) (human IL-21 (human) [2]): 108 fold
fold increase of plasma cells (CD38 high, IgD low), donor 3, 26.7 nM antibody (IL-21 without antibody: 47) (human IL-21 (human) [2]): 47 fold
fold increase of plasma cells (CD38 high, IgD low), donor 4, 26.7 nM antibody (IL-21 without antibody: 68) (human IL-21 (human) [2]): 66 fold
fold increase of plasma cells (CD38 high, IgD low), donor 5, 26.7 nM antibody (IL-21 without antibody: 22) (human IL-21 (human) [2]): 23 fold
OD at 560 nm (human IL-21 (human) [3]): 0.06 OD
OD at 560 nm (human IL-21 (human) [4]): 0.06 OD
OD at 560 nm (human IL-21 (human) [5]): 0.06 OD
OD at 560 nm (human IL-21 (human) [6]): 0.06 OD
OD at 560 nm (human IL-21 (human) [7]): 0.06 OD
OD at 560 nm (human IL-21 (human) [8]): 0.06 OD
OD at 560 nm (human IL-21 (human) [9]): 0.06 OD
